Experimental data as given in patent publication US20140072613A1, “Compositions and Methods for Treating Cutaneous Scarring” (priority 2012, published 2014).

How the values were obtained:
Experiment in all cases: cell-based or functional assay
[1] = target: T1, ALK4(h) (human) (UniProt P36896)
T1 sequence (looked up): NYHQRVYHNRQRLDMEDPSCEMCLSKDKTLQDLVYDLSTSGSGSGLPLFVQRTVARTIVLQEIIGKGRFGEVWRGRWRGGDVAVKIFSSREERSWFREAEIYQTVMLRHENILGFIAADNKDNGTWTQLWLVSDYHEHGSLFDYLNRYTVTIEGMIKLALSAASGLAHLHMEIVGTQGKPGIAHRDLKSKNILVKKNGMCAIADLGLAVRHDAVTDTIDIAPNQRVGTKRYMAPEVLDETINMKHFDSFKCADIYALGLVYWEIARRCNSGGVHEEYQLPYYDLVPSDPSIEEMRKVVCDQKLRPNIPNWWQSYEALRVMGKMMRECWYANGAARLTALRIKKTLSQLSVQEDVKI

[2] = target: CaMKIIβ(h) (human) (UniProt Q13554)
CaMKIIβ(h) (human), sequence (Q13554 whole entry): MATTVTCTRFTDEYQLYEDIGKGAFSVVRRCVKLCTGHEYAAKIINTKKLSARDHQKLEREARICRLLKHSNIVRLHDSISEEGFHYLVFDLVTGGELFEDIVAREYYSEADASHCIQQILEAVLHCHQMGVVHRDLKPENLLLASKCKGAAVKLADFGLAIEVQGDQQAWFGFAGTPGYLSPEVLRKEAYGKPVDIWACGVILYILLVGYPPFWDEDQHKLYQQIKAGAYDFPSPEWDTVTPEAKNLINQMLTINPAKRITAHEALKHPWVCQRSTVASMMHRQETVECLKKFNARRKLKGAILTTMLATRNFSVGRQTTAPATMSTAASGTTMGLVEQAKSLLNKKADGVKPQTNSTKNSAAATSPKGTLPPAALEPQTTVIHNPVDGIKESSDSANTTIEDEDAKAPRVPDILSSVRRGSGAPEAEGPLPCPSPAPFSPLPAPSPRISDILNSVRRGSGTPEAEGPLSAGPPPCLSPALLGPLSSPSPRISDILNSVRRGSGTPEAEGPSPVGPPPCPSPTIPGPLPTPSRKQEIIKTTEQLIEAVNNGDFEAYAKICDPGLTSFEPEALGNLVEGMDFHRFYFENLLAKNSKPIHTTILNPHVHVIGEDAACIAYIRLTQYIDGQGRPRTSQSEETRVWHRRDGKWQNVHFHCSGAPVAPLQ

[3] = target: T2, EphA3(h) (human) (UniProt P29320)
T2 sequence (looked up): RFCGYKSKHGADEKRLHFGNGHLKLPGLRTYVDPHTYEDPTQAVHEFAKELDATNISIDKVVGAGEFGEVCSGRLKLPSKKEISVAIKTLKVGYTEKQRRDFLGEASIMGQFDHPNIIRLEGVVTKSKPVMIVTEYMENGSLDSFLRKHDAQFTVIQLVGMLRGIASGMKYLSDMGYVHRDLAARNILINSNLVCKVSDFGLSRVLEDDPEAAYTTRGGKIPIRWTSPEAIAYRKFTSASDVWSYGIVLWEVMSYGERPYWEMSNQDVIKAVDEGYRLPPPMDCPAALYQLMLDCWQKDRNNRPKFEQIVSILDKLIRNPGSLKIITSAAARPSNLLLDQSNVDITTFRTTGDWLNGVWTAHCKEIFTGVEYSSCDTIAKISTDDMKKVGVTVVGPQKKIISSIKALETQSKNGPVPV

[4] = target: Fyn(h) (human) (UniProt P06241)
Fyn(h) (human), sequence (P06241 whole entry): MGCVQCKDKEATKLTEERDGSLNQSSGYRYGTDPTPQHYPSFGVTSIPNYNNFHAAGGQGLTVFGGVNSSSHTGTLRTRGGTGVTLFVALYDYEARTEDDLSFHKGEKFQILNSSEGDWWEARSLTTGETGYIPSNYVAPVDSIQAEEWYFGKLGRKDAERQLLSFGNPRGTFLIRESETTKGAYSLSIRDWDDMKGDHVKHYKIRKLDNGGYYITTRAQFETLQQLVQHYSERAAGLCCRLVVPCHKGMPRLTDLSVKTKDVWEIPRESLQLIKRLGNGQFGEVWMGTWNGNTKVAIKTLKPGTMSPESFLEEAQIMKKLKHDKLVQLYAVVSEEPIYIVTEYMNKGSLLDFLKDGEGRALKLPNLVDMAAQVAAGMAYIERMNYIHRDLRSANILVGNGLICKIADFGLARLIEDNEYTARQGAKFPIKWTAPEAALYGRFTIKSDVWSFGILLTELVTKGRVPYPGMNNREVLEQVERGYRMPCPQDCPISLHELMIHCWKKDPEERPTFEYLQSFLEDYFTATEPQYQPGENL

[5] = target: T3, MST2(h) (human) (UniProt Q13188)
T3 sequence (looked up): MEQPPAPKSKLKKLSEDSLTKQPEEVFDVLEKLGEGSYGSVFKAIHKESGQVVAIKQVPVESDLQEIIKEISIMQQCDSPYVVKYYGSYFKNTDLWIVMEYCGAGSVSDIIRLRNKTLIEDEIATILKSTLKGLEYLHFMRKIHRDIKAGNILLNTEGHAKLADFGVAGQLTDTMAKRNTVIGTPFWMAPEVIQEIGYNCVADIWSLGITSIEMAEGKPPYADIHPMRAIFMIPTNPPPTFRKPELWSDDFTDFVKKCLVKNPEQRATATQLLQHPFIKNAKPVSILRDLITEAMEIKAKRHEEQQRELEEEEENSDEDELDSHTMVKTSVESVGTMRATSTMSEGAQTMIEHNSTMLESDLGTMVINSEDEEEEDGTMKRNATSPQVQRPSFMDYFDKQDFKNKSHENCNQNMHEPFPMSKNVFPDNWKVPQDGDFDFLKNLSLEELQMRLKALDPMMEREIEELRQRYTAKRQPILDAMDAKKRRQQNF

[6] = target: T4, TAO3(h) (human) (UniProt Q9H2K8)
T4 sequence (looked up): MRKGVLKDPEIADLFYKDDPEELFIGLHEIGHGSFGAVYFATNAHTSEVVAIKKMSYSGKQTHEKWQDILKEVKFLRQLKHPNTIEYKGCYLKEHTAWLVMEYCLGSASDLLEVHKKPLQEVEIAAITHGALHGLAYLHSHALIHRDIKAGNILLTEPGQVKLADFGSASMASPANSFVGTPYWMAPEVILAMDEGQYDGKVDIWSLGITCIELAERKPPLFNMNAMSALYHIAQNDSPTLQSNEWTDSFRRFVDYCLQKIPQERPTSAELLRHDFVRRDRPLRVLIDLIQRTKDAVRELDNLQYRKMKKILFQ

[7] = target: ZAP-70(h) (human) (UniProt P43403)
ZAP-70(h) (human), sequence (P43403 whole entry): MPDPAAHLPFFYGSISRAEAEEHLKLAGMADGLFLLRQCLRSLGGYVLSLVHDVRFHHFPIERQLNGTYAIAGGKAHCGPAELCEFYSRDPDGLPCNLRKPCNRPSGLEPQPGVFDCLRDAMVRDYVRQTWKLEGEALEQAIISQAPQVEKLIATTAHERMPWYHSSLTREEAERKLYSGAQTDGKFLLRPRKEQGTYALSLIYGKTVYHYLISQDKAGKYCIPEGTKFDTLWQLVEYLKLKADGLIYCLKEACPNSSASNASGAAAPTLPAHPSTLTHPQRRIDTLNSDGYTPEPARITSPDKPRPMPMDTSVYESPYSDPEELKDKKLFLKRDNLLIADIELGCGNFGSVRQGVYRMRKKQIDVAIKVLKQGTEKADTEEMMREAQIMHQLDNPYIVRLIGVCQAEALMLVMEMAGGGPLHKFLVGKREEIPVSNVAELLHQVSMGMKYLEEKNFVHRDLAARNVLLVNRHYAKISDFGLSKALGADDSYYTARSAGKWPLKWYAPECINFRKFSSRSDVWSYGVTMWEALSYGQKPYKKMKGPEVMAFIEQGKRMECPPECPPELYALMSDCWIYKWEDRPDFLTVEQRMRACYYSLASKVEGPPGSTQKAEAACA

[8] = target: Src(T341M)(h) (human) (UniProt P12931)
[9] = target: c-RAF(h) (human) (UniProt P04049)
[10] = target: DAPK2(h) (human) (UniProt Q9UIK4)
DAPK2(h) (human), sequence (Q9UIK4 whole entry): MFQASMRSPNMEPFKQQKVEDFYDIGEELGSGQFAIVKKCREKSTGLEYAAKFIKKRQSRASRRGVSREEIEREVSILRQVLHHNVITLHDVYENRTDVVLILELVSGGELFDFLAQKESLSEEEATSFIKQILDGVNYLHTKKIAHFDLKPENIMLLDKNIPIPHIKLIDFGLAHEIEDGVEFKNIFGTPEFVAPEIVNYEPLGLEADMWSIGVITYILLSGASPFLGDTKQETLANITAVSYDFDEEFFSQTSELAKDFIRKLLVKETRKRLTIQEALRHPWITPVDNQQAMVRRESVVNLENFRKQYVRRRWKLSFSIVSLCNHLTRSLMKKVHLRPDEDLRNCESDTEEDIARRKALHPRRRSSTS

[11] = target: CDK1/cyclinB(h) (human) (UniProt P06493)
CDK1/cyclinB(h) (human), sequence (P06493 whole entry, chain 1 of 2): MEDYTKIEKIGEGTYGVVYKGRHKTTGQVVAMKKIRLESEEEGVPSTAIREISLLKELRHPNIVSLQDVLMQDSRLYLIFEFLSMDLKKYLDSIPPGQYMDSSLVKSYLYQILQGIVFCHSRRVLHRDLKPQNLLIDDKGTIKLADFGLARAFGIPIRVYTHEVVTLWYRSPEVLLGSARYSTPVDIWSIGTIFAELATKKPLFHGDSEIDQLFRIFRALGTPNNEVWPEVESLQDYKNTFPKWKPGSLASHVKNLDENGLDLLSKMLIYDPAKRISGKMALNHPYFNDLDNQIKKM
CDK1/cyclinB(h) (human), sequence (P14635 whole entry, chain 2 of 2, further chain): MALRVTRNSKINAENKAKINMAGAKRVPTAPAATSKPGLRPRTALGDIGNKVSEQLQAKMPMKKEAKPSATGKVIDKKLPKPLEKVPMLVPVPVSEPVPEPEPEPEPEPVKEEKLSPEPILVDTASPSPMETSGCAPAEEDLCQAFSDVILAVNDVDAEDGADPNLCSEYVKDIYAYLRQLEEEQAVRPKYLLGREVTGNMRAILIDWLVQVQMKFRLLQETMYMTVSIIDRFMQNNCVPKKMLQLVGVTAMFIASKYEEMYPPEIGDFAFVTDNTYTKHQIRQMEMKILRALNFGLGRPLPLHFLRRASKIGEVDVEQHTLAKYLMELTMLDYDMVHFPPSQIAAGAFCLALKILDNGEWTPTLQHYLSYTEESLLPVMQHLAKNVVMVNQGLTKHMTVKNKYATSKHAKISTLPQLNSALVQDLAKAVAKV

[12] = target: cKit(V654A)(h) (human) (UniProt P10721)
cKit(V654A)(h) (human), sequence (P10721 544-976 V654A): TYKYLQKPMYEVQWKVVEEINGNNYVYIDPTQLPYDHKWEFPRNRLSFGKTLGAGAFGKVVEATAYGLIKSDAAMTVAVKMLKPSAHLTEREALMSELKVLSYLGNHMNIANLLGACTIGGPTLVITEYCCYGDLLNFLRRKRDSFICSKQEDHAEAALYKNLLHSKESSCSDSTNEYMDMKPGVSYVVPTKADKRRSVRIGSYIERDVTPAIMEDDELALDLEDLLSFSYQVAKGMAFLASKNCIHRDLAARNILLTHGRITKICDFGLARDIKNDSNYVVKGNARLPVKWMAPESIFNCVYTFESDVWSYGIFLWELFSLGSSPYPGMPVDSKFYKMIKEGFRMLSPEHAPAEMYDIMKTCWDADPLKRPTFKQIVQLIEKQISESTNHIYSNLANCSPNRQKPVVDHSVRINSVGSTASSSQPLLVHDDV

[13] = target: T5, EphA1(h) (human) (UniProt P21709)
T5 sequence (looked up): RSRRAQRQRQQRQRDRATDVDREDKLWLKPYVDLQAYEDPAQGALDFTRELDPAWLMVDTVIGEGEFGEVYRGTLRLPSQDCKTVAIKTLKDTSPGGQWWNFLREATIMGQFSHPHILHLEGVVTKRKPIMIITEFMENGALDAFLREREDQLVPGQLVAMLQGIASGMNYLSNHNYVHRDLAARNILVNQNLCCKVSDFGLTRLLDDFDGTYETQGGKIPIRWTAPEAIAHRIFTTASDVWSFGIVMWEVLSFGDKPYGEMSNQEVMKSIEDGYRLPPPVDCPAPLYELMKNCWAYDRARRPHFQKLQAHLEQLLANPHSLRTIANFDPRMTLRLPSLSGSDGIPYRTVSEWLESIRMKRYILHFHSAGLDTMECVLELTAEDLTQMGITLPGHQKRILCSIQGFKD

[14] = target: Abl(H8396P)(h) (human) (UniProt P00519)
Abl(H8396P)(h) (human), sequence (P00519 27-1130, stated change not applied): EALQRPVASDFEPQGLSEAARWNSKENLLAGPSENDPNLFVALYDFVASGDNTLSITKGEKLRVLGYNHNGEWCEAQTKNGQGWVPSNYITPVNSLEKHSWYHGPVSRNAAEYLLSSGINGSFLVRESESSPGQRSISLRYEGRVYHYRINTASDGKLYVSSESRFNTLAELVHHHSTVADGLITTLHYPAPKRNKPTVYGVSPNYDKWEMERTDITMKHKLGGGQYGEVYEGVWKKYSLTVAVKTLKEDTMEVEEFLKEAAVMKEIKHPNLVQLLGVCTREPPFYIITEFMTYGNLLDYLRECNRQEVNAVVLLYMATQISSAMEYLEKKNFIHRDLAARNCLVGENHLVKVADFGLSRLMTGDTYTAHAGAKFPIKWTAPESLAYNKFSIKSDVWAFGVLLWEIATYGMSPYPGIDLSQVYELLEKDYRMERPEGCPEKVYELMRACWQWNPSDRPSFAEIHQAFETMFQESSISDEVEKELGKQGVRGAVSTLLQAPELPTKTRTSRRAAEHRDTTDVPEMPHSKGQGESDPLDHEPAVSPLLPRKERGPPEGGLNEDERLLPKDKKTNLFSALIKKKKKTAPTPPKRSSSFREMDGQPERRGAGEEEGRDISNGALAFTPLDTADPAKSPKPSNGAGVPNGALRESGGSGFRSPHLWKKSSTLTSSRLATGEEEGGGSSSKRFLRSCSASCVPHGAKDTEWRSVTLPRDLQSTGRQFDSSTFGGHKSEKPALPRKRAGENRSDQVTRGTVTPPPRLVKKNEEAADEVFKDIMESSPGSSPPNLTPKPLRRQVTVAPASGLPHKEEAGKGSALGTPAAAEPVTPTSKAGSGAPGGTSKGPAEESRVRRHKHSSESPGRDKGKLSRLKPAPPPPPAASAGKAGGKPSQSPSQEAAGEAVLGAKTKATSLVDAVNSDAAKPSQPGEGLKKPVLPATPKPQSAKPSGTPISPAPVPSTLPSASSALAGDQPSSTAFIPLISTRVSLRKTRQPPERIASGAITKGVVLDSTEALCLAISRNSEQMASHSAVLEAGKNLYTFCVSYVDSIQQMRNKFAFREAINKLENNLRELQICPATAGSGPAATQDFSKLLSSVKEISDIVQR

[15] = target: FGFR2(h) (human) (UniProt P21802)
FGFR2(h) (human), sequence (P21802 456-770 limits assumed): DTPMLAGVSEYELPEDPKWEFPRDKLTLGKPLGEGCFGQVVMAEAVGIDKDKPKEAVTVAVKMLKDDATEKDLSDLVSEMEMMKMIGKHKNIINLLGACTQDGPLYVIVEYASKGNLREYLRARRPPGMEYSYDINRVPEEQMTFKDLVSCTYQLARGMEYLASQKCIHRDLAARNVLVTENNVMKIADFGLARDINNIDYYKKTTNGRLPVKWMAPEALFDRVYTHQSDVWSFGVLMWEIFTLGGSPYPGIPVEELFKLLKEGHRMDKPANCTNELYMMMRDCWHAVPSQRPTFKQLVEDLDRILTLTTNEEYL

With MMI-0500 (peptide) the % activity, 100 µM [1] was 81%, the % activity, 100 µM [2] was 3% and the % activity, 100 µM [3] was 33%. It also gave a % activity, 100 µM [4] of 83%, a % activity, 100 µM [5] of 2% and a % activity, 100 µM [6] of 12%. The % activity, 100 µM [7] was 1%, the % activity, 100 µM [8] was 59% and the % activity, 100 µM [9] was 19%. For the same substance, the % activity, 100 µM [10] was 3%, the % activity, 100 µM [11] was 57% and the % activity, 100 µM [12] was 223%. For the same substance, the % activity, 100 µM [13] was 40%, the % activity, 100 µM [14] was 51% and the % activity, 100 µM [15] was 12%.
